{"source": "paper PMC9989928", "proteins": {"B1": {"name": "vitelline membrane outer layer protein 1 homolog (VMO1): W105F (protein)", "parent chain": "MERGAGAKLLPLLLLLRATGFTCAQTDGRNGYTAVIEVTSGGPWGDWAWPEMCPDGFFASGFSLKVEPPQGIPGDDTALNGIRLHCARGNVLGNTHVVESQSGSWGEWSEPLWCRGGAYLVAFSLRVEAPTTLGDNTAANNVRFRCSDGEELQGPGLSWGDFGDWSDHCPKGACGLQTKIQGPRGLGDDTALNDARLFCCRS"}}, "conditions_in_all_cases": "glycan lost; control: wild-type VMO1-myc-his6", "key": {"[1]": {"assay": "anti-myc western blot of total cell lysates"}, "[2]": {"assay": "cycloheximide chase, western blot of lysates"}, "[3]": {"assay": "anti-myc western blot of conditioned media"}}, "data": [{"protein": "B1", "values": [{"measurement": "expression_or_secretion", "setting": "[1]", "result": "increases"}, {"measurement": "degradation_or_half_life", "setting": "[2]", "result": "increases"}, {"measurement": "expression_or_secretion", "setting": "[3]", "result": "no change"}]}]}
